Laboratory results as given in paper PMC5638340.

Key:
[1] = target: Acetylcholine binding protein (AChBP) from Lymnaea stagnalis (L. stagnalis) (UniProt P58154); test: SPR
[2] = target: Human α7 nAChR expressed in GH4C1 cells (human) (UniProt P36544); test: radioligand binding
[3] = target: Acetylcholine binding protein (AChBP) from Lymnaea stagnalis (L. stagnalis) (UniProt P58154); test: radioligand binding
[4] = target: Muscle-type nAChR of Torpedo californica electric organ (Torpedo californica); test: radioligand binding
Chain of Muscle-type nAChR of Torpedo californica electric organ (Torpedo californica) (P02710 25-461, chain 1 of 4): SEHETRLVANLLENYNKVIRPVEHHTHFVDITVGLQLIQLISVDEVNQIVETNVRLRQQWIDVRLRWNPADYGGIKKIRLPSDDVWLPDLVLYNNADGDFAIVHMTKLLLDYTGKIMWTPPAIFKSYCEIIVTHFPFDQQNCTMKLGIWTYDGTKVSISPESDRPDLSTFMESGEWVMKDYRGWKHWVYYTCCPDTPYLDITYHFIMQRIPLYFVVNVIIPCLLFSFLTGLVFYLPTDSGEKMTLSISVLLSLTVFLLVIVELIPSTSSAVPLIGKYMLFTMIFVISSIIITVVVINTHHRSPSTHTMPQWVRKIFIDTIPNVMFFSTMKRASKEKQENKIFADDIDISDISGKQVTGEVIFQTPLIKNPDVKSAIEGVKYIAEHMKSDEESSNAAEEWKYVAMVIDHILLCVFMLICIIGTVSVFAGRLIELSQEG
Chain of Muscle-type nAChR of Torpedo californica electric organ (Torpedo californica) (P02712 25-493, chain 2 of 4, further chain): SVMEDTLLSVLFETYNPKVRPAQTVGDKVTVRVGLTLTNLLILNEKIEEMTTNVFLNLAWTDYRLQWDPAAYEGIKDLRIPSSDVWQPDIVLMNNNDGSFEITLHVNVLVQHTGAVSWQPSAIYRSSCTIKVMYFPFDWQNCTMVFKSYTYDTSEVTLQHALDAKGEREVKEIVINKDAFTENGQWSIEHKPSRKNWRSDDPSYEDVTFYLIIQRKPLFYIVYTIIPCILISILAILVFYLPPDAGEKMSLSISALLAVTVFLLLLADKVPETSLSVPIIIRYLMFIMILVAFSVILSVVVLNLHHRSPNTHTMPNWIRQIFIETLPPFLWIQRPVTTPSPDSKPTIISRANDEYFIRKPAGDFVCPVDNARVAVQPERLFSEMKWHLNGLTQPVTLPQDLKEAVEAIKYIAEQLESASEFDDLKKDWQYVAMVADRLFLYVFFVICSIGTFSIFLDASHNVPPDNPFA
Chain of Muscle-type nAChR of Torpedo californica electric organ (Torpedo californica) (P02714 18-506, chain 3 of 4, further chain): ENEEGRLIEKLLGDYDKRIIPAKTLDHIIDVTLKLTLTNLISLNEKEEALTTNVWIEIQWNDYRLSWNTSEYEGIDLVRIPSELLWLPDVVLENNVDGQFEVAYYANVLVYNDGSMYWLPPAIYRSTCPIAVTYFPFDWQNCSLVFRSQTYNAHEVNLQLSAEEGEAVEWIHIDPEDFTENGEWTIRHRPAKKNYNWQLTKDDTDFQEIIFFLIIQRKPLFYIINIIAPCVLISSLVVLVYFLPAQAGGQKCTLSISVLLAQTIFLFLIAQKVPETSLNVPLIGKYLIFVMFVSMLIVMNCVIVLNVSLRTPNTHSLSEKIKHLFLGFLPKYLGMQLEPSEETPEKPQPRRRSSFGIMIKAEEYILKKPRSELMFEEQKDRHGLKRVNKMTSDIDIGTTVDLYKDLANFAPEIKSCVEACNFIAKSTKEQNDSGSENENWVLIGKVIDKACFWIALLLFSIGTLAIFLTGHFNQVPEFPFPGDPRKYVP
Chain of Muscle-type nAChR of Torpedo californica electric organ (Torpedo californica) (P02718 22-522, chain 4 of 4, further chain): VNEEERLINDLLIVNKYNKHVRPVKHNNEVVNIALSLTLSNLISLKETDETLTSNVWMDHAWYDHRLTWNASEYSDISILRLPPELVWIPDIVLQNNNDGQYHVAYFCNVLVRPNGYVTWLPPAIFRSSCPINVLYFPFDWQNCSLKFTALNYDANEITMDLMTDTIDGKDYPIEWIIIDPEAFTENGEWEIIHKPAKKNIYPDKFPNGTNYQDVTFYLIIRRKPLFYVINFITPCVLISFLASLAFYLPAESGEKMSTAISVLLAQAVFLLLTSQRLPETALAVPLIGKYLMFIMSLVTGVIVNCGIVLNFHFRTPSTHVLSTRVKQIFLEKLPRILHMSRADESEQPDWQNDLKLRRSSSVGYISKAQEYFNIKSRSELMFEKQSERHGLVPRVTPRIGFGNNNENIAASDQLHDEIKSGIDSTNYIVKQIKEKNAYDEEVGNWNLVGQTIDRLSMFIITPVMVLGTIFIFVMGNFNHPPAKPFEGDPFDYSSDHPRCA

Chain of Acetylcholine binding protein (AChBP) from Lymnaea stagnalis (L. stagnalis) (P58154 20-229): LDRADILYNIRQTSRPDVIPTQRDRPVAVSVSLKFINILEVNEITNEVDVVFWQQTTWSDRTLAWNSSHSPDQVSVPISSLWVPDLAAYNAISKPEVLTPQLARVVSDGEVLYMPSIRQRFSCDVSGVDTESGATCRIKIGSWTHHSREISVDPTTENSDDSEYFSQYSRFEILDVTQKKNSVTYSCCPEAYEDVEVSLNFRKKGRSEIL
Chain of Human α7 nAChR expressed in GH4C1 cells (human) (P36544 23-502): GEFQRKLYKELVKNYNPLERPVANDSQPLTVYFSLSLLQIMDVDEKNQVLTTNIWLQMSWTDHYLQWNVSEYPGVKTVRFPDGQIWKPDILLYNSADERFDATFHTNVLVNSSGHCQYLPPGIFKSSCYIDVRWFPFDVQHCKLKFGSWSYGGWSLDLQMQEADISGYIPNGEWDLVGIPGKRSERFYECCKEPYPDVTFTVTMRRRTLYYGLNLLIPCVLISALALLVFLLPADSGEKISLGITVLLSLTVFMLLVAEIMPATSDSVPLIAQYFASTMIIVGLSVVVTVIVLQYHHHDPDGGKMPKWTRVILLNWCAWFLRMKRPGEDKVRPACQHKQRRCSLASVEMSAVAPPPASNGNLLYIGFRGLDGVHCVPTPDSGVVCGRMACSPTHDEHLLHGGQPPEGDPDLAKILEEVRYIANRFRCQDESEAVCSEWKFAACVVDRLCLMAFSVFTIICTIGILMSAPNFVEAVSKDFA

**Q.** Which results are given for “Crotoxin from Crotalus durissus terrificus venom (complex)”?
**A.** Kd [1]: 120 nM; IC50, high affinity site (two-site model) [2]: 4.9 nM; IC50, low affinity site (two-site model) [2]: 15 µM; IC50 [3]: 640 nM; IC50, high affinity site (two-site model) [4]: 30 nM; IC50, low affinity site (two-site model) [4]: 260 nM
